From paper PMC3320602

Target: HIV-1 JR-FL envelope glycoprotein (gp120 and gp41) on GFP-labelled Env-pseudotyped particles (HIV-1 isolate JR-FL)

With “tetrameric CD4-IgG2 molecule (PRO 542) (from UniProt P01730 26-396; P01730 26-396) (Fc fusion)” as the substance, how does the IC50 of inhibition of JR-FL infection of TZM-bl cells (luciferase), cell-cell transmission from infected PBMC against cell-free virus; the pair blocked is m1+m3 read?
Its IC50 of inhibition of JR-FL infection of TZM-bl cells (luciferase), cell-cell transmission from infected PBMC against cell-free virus; the pair blocked is m1+m3 is 40 fold.
